Reference: the supplement of paper PMC11780869

Test system: Bacillus subtilis
Assay: cleaved RNA product abundance (RNA/gDNA barcode ratio) relative to median wild-type variant (ratio to wild type); higher = more accumulation of the downstream cleavage product
Settings: cleavage site: cggR-gapA (positions -7 to +36 mutated)
Procedure, shortened: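 The B. subtilis chromosome carried reporter mRNAs, truncated aprE or tetM, containing barcoded RNase Y cleavage-site windows mutagenized using oligos with a 9% error rate. After growth in LB at 37°C from OD600 0.0003 to 0.3, cleaved RNA was gel-selected, reverse transcribed and barcode-sequenced next to genomic DNA barcodes, with UMI collapsing. Each construct's RNA:gDNA barcode ratio was scaled to the median construct with the unmutated site. That scaled ratio is reported as cleaved product abundance.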

[1] = experiment (reporter, strain, medium): exp 2b: truncated aprE reporter, strain BJT200
[2] = experiment (reporter, strain, medium): exp 4a: truncated aprE reporter, strain BJT201 with 2% xylose (RNase J1 expressed)

Sequence | cleaved RNA product abundance [1] | cleaved RNA product abundance [2] | cleaved RNA product abundance (experiment (reporter, strain, medium): exp 6: tetM reporter, strain 168)
ACAGACGAAGGAGCCGCAAAGAAGTTATTAAGGGAAGAATAATCCCTCAATATATATATCTCTCACTTATTTAAA | 0.393 | 0.563 | –
ACAGACGAAGGAGCCGCAAAGAAGTTATTAAGGGAAGAATAATCCCTCAATATGAATATCTCTCACTTATTTAAA | – | 0.0705 | –
ACAGACGAAGGAGCCGCAAAGAAGTTATTAAGGGAAGAATAATCCCTCACTATAAATATCTCTCACTTATTTAAA | 0.187 | – | –
ACAGACGAAGGAGCCGCAAAGAAGTTATTAAGGGAAGAATAATCCCTCAGTATAAATATCTCTCACTTATTTAAA | 0.153 | 0.29 | –
ACAGACGAAGGAGCCGCAAAGAAGTTATTAAGGGAAGAATAATCCCTCATTATAAATATCTCTCACTTATTTAAA | 0.208 | 0.216 | –
ACAGACGAAGGAGCCGCAAAGAAGTTATTAAGGGAAGAATAATCCCTCCATATAAATATCTCTCACTTATTTAAA | – | 0.202 | –
ACAGACGAAGGAGCCGCAAAGAAGTTATTAAGGGAAGAATAATCCCTCGATATAAATATCTCTCACTTATTTAAA | – | 0.521 | –
ACAGACGAAGGAGCCGCAAAGAAGTTATTAAGGGAAGAATAATCCCTCTATATAAATATCTCTCACTTATTTAAA | – | 0.239 | –
ACAGACGAAGGAGCCGCAAAGAAGTTATTAAGGGAAGAATAATCCCTGAATATAAATATCTCTCACTTATTTAAA | – | 0.374 | –
ACAGACGAAGGAGCCGCAAAGAAGTTATTAAGGGAAGAATAATCCCTTAATATAAATATCTCTCACTTATTTAAA | 1.05 | 0.952 | –
ACAGACGAAGGAGCCGCAAAGAAGTTATTAAGGGAAGAATAATCCGTCAATATAAATATCTCTCACTTATTTAAA | 0.0722 | – | –
ACAGACGAAGGAGCCGCAAAGAAGTTATTAAGGGAAGAATAATCCTTCAATATAAATATCTCTCACTTATTTAAA | 0.13 | 0.144 | –
ACAGACGAAGGAGCCGCAAAGAAGTTATTAAGGGAAGAATAATCGCTCAATATAAATATCTCTCACTTATTTAAA | – | 0.114 | –
ACAGACGAAGGAGCCGCAAAGAAGTTATTAAGGGAAGAATAATCTCTCAATATAAATATCTCTCACTTATTTAAA | 0.124 | 0.201 | –
ACAGACGAAGGAGCCGCAAAGAAGTTATTAAGGGAAGAATAATGCCTCAATATAAATATCTCTCACTTATTTAAA | 0.0918 | 0.132 | –
ACAGACGAAGGAGCCGCAAAGAAGTTATTAAGGGAAGAATAATTCCTCAATATAAATATCTCTCACTTATTTAAA | 0.165 | 0.21 | –
ACAGACGAAGGAGCCGCAAAGAAGTTATTAAGGGAAGAATACTCCCTCAATATAAATATCTCTCACTTATTTAAA | 0.632 | 1.01 | –
ACAGACGAAGGAGCCGCAAAGAAGTTATTAAGGGAAGAATAGTCCCTCAATATAAATATCTCTCACTTATTTAAA | – | 0.594 | –
ACAGACGAAGGAGCCGCAAAGAAGTTATTAAGGGAAGAATATTCCCTCAATATAAATATCTCTCACTTATTTAAA | 0.797 | 0.603 | –
ACAGACGAAGGAGCCGCAAAGAAGTTATTAAGGGAAGAATGATCCCTCAATATAAATATCTCTCACTTATTTAAA | – | 0.925 | –

Sequence | cleaved RNA product abundance [1] | cleaved RNA product abundance [2] | cleaved RNA product abundance (experiment (reporter, strain, medium): exp 6: tetM reporter, strain 168)
ACAGACGAAGGAGCCGCAAAGAAGTTATTAAGGGAAGAATTATCCCTCAATATAAATATCTCTCACTTATTTAAA | – | 0.771 | –
ACAGACGAAGGAGCCGCAAAGAAGTTATTAAGGGAAGACTAATCCCTCAATATAAATATCTCTCACTTATTTAAA | – | 0.452 | –
ACAGACGAAGGAGCCGCAAAGAAGTTATTAAGGGAAGCATAATCCCTCAATATAAATATCTCTCACTTATTTAAA | – | 0.551 | –
ACAGACGAAGGAGCCGCAAAGAAGTTATTAAGGGAAGTATAATCCCTCAATATAAATATCTCTCACTTATTTAAA | 0.599 | – | –
ACAGACGAAGGAGCCGCAAAGAAGTTATTAAGGGAATAATAATCCCTCAATATAAATATCTCTCACTTATTTAAA | 0.811 | 0.934 | –
ACAGACGAAGGAGCCGCAAAGAAGTTATTAAGGGAATGAATAATCCCTCAATATAAATATCTCTCACTTATTTAA | – | 0.604 | –
ACAGACGAAGGAGCCGCAAAGAAGTTATTAAGGGACAAATAATCCCTCAATATAAATATCTCTCACTTATTTAAA | – | 0.84 | –
ACAGACGAAGGAGCCGCAAAGAAGTTATTAAGGGACGAATAAACCCTCAATATAAATATCTCTCACTTATTTAAA | 0.197 | 0.237 | –
ACAGACGAAGGAGCCGCAAAGAAGTTATTAAGGGACGAATAACCCCTCAATATAAATATCTCTCACTTATTTAAA | – | 0.19 | –
ACAGACGAAGGAGCCGCAAAGAAGTTATTAAGGGACGAATAATACCTCAATATAAATATCTCTCACTTATTTAAA | – | 0.12 | –
ACAGACGAAGGAGCCGCAAAGAAGTTATTAAGGGACGAATAATCAATCAATATAAATATCTCTCACTTATTTAAA | – | 0.132 | –
ACAGACGAAGGAGCCGCAAAGAAGTTATTAAGGGACGAATAATCACTCAATATAAATATCTCTCACTTATTTAAA | – | 0.0856 | –
ACAGACGAAGGAGCCGCAAAGAAGTTATTAAGGGACGAATAATCCATCAATATAAATATCTCTCACTTATTTAAA | – | 0.0728 | –
ACAGACGAAGGAGCCGCAAAGAAGTTATTAAGGGACGAATAATCCCACAATATAAATATCTCTCACTTATTTAAA | 0.13 | – | –
ACAGACGAAGGAGCCGCAAAGAAGTTATTAAGGGACGAATAATCCCGCAATATAAATATCTCTCACTTATTTAAA | – | 0.132 | –
ACAGACGAAGGAGCCGCAAAGAAGTTATTAAGGGACGAATAATCCCTAAATATAAATATCTCTCACTTATTTAAA | – | 0.287 | –
ACAGACGAAGGAGCCGCAAAGAAGTTATTAAGGGACGAATAATCCCTCAAAATAAATATCTCTCACTTATTTAAA | – | 0.346 | –
ACAGACGAAGGAGCCGCAAAGAAGTTATTAAGGGACGAATAATCCCTCAATATAAATAGCTCTCACTTATTTAAA | – | 0.3 | –
ACAGACGAAGGAGCCGCAAAGAAGTTATTAAGGGACGAATAATCCCTCAATATAAATATCTCTCACTTATTTAAA | 0.691 | 0.697 | 0.805
ACAGACGAAGGAGCCGCAAAGAAGTTATTAAGGGACGAATAATCCCTCAATATAAATCTCTCTCACTTATTTAAA | – | 0.53 | –

Sequence | cleaved RNA product abundance [1] | cleaved RNA product abundance [2] | cleaved RNA product abundance (experiment (reporter, strain, medium): exp 6: tetM reporter, strain 168)
ACAGACGAAGGAGCCGCAAAGAAGTTATTAAGGGACGAATAATCCCTCAATATAAATTTCTCTCACTTATTTAAA | – | 0.559 | –
ACAGACGAAGGAGCCGCAAAGAAGTTATTAAGGGACGAATAATCCCTCAATATATATATCTCTCACTTATTTAAA | 0.629 | 0.771 | –
ACAGACGAAGGAGCCGCAAAGAAGTTATTAAGGGACGAATAATCCCTCAATCTAAATATCTCTCACTTATTTAAA | – | 0.0944 | –
ACAGACGAAGGAGCCGCAAAGAAGTTATTAAGGGACGAATAATCCCTCAGTATAAATATCTCTCACTTATTTAAA | – | 0.415 | –
ACAGACGAAGGAGCCGCAAAGAAGTTATTAAGGGACGAATAATCCCTCATTATAAATATCTCTCACTTATTTAAA | 0.215 | 0.326 | –
ACAGACGAAGGAGCCGCAAAGAAGTTATTAAGGGACGAATAATCCCTCCATATAAATATCTCTCACTTATTTAAA | – | 0.255 | –
ACAGACGAAGGAGCCGCAAAGAAGTTATTAAGGGACGAATAATCCGTCAATATAAATATCTCTCACTTATTTAAA | 0.0596 | 0.072 | –
ACAGACGAAGGAGCCGCAAAGAAGTTATTAAGGGACGAATAATCCTTCAATATAAATATCTCTCACTTATTTAAA | 0.146 | 0.217 | –
ACAGACGAAGGAGCCGCAAAGAAGTTATTAAGGGACGAATAATCGCTCAATATAAATATCTCTCACTTATTTAAA | – | 0.0681 | –
ACAGACGAAGGAGCCGCAAAGAAGTTATTAAGGGACGAATAATCTCTCAATATAAATATCTCTCACTTATTTAAA | 0.139 | – | –
ACAGACGAAGGAGCCGCAAAGAAGTTATTAAGGGACGAATAATTCCTCAATATAAATATCTCTCACTTATTTAAA | 0.126 | 0.192 | –
ACAGACGAAGGAGCCGCAAAGAAGTTATTAAGGGACGAATAGTCCCTCAATATAAATATCTCTCACTTATTTAAA | 0.905 | – | –
ACAGACGAAGGAGCCGCAAAGAAGTTATTAAGGGACGAATATTCCCTCAATATAAATATCTCTCACTTATTTAAA | – | 0.525 | –
ACAGACGAAGGAGCCGCAAAGAAGTTATTAAGGGACGATTAATCCCTCAATATAAATATCTCTCACTTATTTAAA | – | 0.349 | –
ACAGACGAAGGAGCCGCAAAGAAGTTATTAAGGGACGTATAATCCCTCAATATAAATATCTCTCACTTATTTAAA | – | 0.705 | –
ACAGACGAAGGAGCCGCAAAGAAGTTATTAAGGGACTAATAATCCCTCAATATAAATATCTCTCACTTATTTAAA | 1.03 | 1.01 | –
ACAGACGAAGGAGCCGCAAAGAAGTTATTAAGGGAGAAATAATCCCTCAATATAAATATCTCTCACTTATTTAAA | – | 0.795 | –
ACAGACGAAGGAGCCGCAAAGAAGTTATTAAGGGAGAATAATCCCTCAATATAAATATCTCTCACTTATTTAAAG | – | 0.471 | –
ACAGACGAAGGAGCCGCAAAGAAGTTATTAAGGGAGCAATAATCCCTCAATATAAATATCTCTCACTTATTTAAA | – | 0.631 | –
ACAGACGAAGGAGCCGCAAAGAAGTTATTAAGGGAGGAATAAACCCTCAATATAAATATCTCTCACTTATTTAAA | – | 0.382 | –
